This is an account of results in PMC5842915 (Biochemistry, 2017).

Several values for one entry are separate records, joined by “and”; a condition that tells them apart may be missing. Identical values can stand only once. Like-named read-outs stand apart in the source and are kept apart here.

In assay [1] the target is BECN1 CC CC (Homo sapiens) (UniProt Q14457). The settings on record: cited from earlier work.
Assay [2] deals with BECN^1-265 (BECN1 residues 1-265, BARA-less construct) (human) (UniProt Q14457). As to the kind of experiment: AUC.
Assay [3] addresses Bcl-2 (Homo sapiens) (UniProt P10415). The conditions noted are these: cited from earlier work.
In assay [4] the target is V250A/M254A/L261A mutant of full-length BECN1 (human) (UniProt Q14457). As to the kind of experiment: AUC.
Assay [5] addresses Bcl-2 (Homo sapiens) (UniProt P10415). The settings on record: cited from earlier work. The source holds these as a separate data set.
Assay [6] deals with human Bcl-2 (residues 1-218) (human, UniProt P10415 1-218). As to the kind of experiment: ITC. Background: Isothermal titration calorimetry measures the heat released or taken up as one component is titrated into another.
Chain of human Bcl-2 (residues 1-218) (P10415 1-218): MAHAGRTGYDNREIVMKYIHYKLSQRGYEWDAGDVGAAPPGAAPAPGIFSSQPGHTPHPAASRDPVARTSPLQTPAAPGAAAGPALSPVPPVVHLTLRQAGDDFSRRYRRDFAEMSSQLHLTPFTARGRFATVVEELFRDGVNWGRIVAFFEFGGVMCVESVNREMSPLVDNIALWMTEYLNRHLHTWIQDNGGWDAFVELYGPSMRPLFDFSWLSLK

Chain of Bcl-2 (Homo sapiens) (P10415 whole entry, the tested form may be a part): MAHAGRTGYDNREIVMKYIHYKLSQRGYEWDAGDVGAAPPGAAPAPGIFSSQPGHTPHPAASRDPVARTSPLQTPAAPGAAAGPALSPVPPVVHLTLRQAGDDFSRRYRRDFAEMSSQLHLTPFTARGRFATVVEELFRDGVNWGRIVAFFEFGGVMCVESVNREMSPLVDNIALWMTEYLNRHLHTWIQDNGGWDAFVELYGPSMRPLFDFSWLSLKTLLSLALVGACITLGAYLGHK

A word on the Kd: it is a measure of binding affinity in units of concentration. Consider BECN1 CC CC (from UniProt Q14457), for which, in assay [1], the Kd was 48 µM and 45 µM. Consider “BECN^1-265 (BECN1 residues 1-265, BARA-less construct) (from UniProt Q14457 1-265) (domain or fragment)”, for which the Kd in assay [2] worked out at 1350 nM.

For “BECN1 BH3 peptide 105-130 (from UniProt Q14457)”, in the assay with Bcl-2 (Homo sapiens) [3], the Kd is 8 µM. Turning to “V250A/M254A/L261A mutant of full-length BECN1 (from UniProt Q14457 1-450) (natural protein)”, in assay [4], the Kd came out at 1860 nM. In the case of BECN1 IDR 1-135 (from UniProt Q14457), the Kd with Bcl-2 (Homo sapiens) [5] was 8.6 µM.

B1: BECN1 BH3 peptide (residues 97-126) (peptide)
peptide: FTLIGEASDGGTMENLSRRLKVTGDLFDIM
In assay [6], B1 yielded a Kd of 9.6 µM.
